Measurements from patent US6413935.

Target: HLA-DQ3.1 (DQA1*0301/DQB1*0310), purified from PF cells (human) (UniProt P01909)
Assay: 125I-peptide inhibition, purified class II

With lambda rep 12-26 (peptide) the IC50 was > 10 µM.
